The target in assay [1] is T1, GM-CSF receptor, cognate for the human GM-CSF constructs (GM-CSF-Ra, R&D Systems) (UniProt P15509 23-320).
T1 construct: also called cognate GM-CSF receptor
T1 sequence (looked up): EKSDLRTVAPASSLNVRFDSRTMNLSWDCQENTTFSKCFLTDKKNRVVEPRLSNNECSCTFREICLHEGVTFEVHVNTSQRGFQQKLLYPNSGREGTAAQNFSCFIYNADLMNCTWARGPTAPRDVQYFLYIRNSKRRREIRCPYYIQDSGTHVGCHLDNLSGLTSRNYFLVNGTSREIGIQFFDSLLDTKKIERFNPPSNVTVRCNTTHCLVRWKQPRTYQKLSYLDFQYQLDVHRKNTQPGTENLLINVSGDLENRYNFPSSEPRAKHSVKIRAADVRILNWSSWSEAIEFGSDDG
Put plainly: SPR (Biacore), fusion captured on anti-human F(ab)2, 100 nM GM-CSF receptor injected. A general note: Surface plasmon resonance follows binding to a sensor surface in real time, without labels.

In assay [2] the target is T2, IL-2-Rβ (IL-2 receptor β chain, R&D Systems) (UniProt P14784 27-239).
T2 construct: also called IL-2-sRβ
T2 sequence (looked up): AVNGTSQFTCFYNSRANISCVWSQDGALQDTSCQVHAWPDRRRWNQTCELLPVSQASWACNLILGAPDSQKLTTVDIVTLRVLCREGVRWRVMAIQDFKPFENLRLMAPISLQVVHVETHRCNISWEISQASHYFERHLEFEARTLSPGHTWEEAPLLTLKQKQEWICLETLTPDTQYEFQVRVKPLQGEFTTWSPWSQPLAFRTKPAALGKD
The assay can be described thus: SPR (Biacore), fusion captured on anti-human F(ab)2, 100 nM IL-2-sRβ injected, with or without premixed 200 nM IL-15.

In assay [3] the target is human recombinant IL-17A (human, UniProt Q16552 24-155, limits assumed). Put plainly: cell-based or functional assay.
For assay [4], the target named is T2, IL-2-Rβ (IL-2 receptor β chain, R&D …). Put plainly: SPR (Biacore), fusion captured on anti-human F(ab)2, 100 nM IL-2-Rβ injected.
The target in assay [5] is IL-6 (R&D Systems) (UniProt P05231 30-212, limits assumed). The assay can be described thus: SPR (Biacore), fusion captured on anti-human F(ab)2, 100 nM IL-6 injected alone or with 1000 nM HSA.
Assay [6] addresses Lysozyme (R&D Systems) (UniProt P00698 19-147). Put plainly: SPR, Fab construct captured via anti-human F(ab)2, lysozyme 0.1-10 nM, Langmuir model.

In general, Kd refers to the concentration at which binding is half-saturated.

B1: CA645/GM-CSFCH1 (human) (CA645 Fab with human GM-CSF at the C-terminus of CH1, for comparison) (Fab, V domains shown)
VH: EVQLLESGGGLVQPGGSLRLSCAVSGIDLSNYAINWVRQAPGKGLEWIGIIWASGTTFYATWAKGRFTISRDNSKNTVYLQMNSLRAEDTAVYYCARTVPGYSTAPYFDLWGQGTLVTVSS
VL: DIQMTQSPSSVSASVGDRVTITCQSSPSVWSNFLSWYQQKPGKAPKLLIYEASKLTSGVPSRFSGSGSGTDFTLTISSLQPEDFATYYCGGGYSSISDTTFGGGTKVEIKR
notes: also called constant domain (CH1) fusion of the GM-CSF peptide (human)
In the case of B1, the binding result in assay [1] is listed as “binds”.

B2: CA497/IL-15Fwk3 (anti-IL-17A CA497 Fab with human IL-15 inserted into framework 3 of the VH domain) (Fab)
heavy: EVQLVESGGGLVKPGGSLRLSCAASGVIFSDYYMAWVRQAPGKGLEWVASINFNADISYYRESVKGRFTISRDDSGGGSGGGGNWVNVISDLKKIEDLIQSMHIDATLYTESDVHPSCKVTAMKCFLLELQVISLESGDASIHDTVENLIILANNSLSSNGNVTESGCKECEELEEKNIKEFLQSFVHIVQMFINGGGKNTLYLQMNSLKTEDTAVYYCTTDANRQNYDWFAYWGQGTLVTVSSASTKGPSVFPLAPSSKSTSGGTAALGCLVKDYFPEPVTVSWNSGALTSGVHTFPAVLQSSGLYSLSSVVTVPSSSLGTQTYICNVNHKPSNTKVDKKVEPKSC
light: AIQLTQSPSSLSASVGDRVTITCKASESVSSSMYSYMHWYQQKPGKAPKLLIYRASNLESGVPSRFSGSGSGTDFTLTISSLQPEDFATYYCQQSWTAPRTFGQGTKVEIKRTVAAPSVFIFPPSDEQLKSGTASVVCLLNNFYPREAKVQWKVDNALQSGNSQESVTEQDSKDSTYSLSSTLTLSKADYEKHKVYACEVTHQGLSSPVTKSFNRGEC
notes: also called CA497/IL-15 antibody fusion protein
As to B2, the binding result in assay [2] was “binds”.

B3: CA645 Fab-Fwk3 CA497 dsscFv (vLvH) (bispecific antibody)
heavy: EVQLLESGGGLVQPGGSLRLSCAVSGIDLSNYAINWVRQAPGKGLEWIGIIWASGTTFYATWAKGRFTISRDNSGGGGSGGGGSAIQLTQSPSSLSASVGDRVTITCKASESVSSSMYSYMHWYQQKPGKAPKLLIYRASNLESGVPSRFSGSGSGTDFTLTISSLQPEDFATYYCQQSWTAPRTFGCGTKVEIKGGGGSGGGGSGGGGSEVQLVESGGGLVKPGGSLRLSCAASGVIFSDYYMAWVRQAPGKCLEWVASINFNADISYYRESVKGRFTISRDDSKNTLYLQMNSLKTEDTAVYYCTTDANRQNYDWFAYWGQGTLVTVSSGGGGSGGGGSKNTVYLQMNSLRAEDTAVYYCARTVPGYSTAPYFDLWGQGTLVTVSSASTKGPSVFPLAPSSKSTSGGTAALGCLVKDYFPEPVTVSWNSGALTSGVHTFPAVLQSSGLYSLSSVVTVPSSSLGTQTYICNVNHKPSNTKVDKKVEPKSC
light: DIQMTQSPSSVSASVGDRVTITCQSSPSVWSNFLSWYQQKPGKAPKLLIYEASKLTSGVPSRFSGSGSGTDFTLTISSLQPEDFATYYCGGGYSSISDTTFGGGTKVEIKRTVAAPSVFIFPPSDEQLKSGTASVVCLLNNFYPREAKVQWKVDNALQSGNSQESVTEQDSKDSTYSLSSTLTLSKADYEKHKVYACEVTHQGLSSPVTKSFNRGEC
In the case of B3, in assay [3], the “IL-17A EC50 (ng/ml), neutralisation of IL-17A (IL-6 secretion by Hela cells), with HSA” value was 10.8 ng/mL and the “IL-17A EC50 (ng/ml), neutralisation of IL-17A (IL-6 secretion by Hela cells), without HSA” value stood at 10.5 ng/mL.

B4: CA645/IL-15Fwk3 with bovine short linker (Fab)
heavy: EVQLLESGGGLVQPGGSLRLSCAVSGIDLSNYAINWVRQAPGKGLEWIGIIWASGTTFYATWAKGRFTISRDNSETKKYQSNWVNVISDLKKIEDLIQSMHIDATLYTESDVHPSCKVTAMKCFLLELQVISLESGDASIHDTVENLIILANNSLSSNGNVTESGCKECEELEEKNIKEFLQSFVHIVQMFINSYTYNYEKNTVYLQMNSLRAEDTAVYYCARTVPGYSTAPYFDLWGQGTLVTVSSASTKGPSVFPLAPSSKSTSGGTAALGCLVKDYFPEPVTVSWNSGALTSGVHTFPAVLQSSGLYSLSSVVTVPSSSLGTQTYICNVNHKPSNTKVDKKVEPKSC
light: B3 light
notes: also called CA645 Fab heavy chain with human IL-15 inserted into framework 3 with bovine short linker
With B4, in assay [4], the binding result was “binds”.

B5: CA645 Fab-Fwk3 CA497 dsscFv (vHvL) (bispecific antibody)
heavy: EVQLLESGGGLVQPGGSLRLSCAVSGIDLSNYAINWVRQAPGKGLEWIGIIWASGTTFYATWAKGRFTISRDNSGGGGSGGGGSEVQLVESGGGLVKPGGSLRLSCAASGVIFSDYYMAWVRQAPGKCLEWVASINFNADISYYRESVKGRFTISRDDSKNTLYLQMNSLKTEDTAVYYCTTDANRQNYDWFAYWGQGTLVTVSSGGGGSGGGGSGGGGSAIQLTQSPSSLSASVGDRVTITCKASESVSSSMYSYMHWYQQKPGKAPKLLIYRASNLESGVPSRFSGSGSGTDFTLTISSLQPEDFATYYCQQSWTAPRTFGCGTKVEIKGGGGSGGGGSKNTVYLQMNSLRAEDTAVYYCARTVPGYSTAPYFDLWGQGTLVTVSSASTKGPSVFPLAPSSKSTSGGTAALGCLVKDYFPEPVTVSWNSGALTSGVHTFPAVLQSSGLYSLSSVVTVPSSSLGTQTYICNVNHKPSNTKVDKKVEPKSC
light: B3 light
B5: in assay [3], the “IL-17A EC50 (ng/ml), neutralisation of IL-17A (IL-6 secretion by Hela cells), with HSA” value turned out to be 8.7 ng/mL and the “IL-17A EC50 (ng/ml), neutralisation of IL-17A (IL-6 secretion by Hela cells), without HSA” value came to 10.6 ng/mL.

B6: CA645/VHH15Fwk3 (CA645 Fab with anti-IL-6 camelid VHH15 inserted into framework 3 of the VH domain) (bispecific antibody)
heavy: EVQLLESGGGLVQPGGSLRLSCAVSGIDLSNYAINWVRQAPGKGLEWIGIIWASGTTFYATWAKGRFTISRDNSGGGGSGGGGSQVQLVESGGGSVQAGGSLRLSCVAASGYTGCTYDMRWYRQAPGKEREFVSGIDSDGRATYADSVKGRFTISQSNAKIAVYLQMDSLKLEDTAMYYCNLQCLRYPGEYYWGQGTQVTVSSGGGGSGGGGSKNTVYLQMNSLRAEDTAVYYCARTVPGYSTAPYFDLWGQGTLVTVSSASTKGPSVFPLAPSSKSTSGGTAALGCLVKDYFPEPVTVSWNSGALTSGVHTFPAVLQSSGLYSLSSVVTVPSSSLGTQTYICNVNHKPSNTKVDKKVEPKSC
light: B3 light
notes: also called CA645/VHH15 antibody fusion protein
Regarding B6, in assay [5], the binding result is “binds”.

B7: CA645/IL-15Fwk3 with bovine long linker (Fab)
heavy: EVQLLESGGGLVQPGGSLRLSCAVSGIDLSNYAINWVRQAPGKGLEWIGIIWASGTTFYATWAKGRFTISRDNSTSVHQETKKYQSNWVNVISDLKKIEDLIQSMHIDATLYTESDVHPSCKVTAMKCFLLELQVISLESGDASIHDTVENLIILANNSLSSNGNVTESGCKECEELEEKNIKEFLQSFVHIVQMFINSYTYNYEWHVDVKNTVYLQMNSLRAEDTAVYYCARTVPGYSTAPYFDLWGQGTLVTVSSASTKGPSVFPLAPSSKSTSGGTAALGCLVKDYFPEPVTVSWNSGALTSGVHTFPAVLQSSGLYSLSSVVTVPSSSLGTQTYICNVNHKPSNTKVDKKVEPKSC
light: B3 light
notes: also called CA645 Fab heavy chain with human IL-15 inserted into framework 3 with bovine long linker
B7: the binding result in assay [4] is reported as “binds”.

B8: CA645/IL-15Fwk3 with 2xG4S linker (Fab)
heavy: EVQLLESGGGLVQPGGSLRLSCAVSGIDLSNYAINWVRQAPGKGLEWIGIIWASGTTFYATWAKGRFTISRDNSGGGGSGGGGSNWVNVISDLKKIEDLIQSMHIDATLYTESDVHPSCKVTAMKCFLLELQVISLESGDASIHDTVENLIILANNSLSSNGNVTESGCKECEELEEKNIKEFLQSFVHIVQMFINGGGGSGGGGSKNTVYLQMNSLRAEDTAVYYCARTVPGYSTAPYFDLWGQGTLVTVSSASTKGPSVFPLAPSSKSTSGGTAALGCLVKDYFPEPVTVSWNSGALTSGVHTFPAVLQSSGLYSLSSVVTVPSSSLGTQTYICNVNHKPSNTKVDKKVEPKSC
light: B3 light
notes: also called CA645 Fab heavy chain with human IL-15 inserted into framework 3 with 2xG4S linker
Turning to B8, the binding result in assay [4] is “binds”.

B9: CA645/GM-CSFFwk3 (human) (CA645 Fab with human GM-CSF inserted into framework 3 of the VH domain) (Fab)
heavy: not shown
light: B3 light
notes: also called CA645/hGM-CSF antibody fusion protein
B9: in assay [1], the binding result was “binds”.

B10: CA645/VHH D3L11Fwk3 (CA645 Fab with anti-lysozyme VHH D3L11 inserted into framework 3 of the light chain) (bispecific antibody)
heavy: EVQLLESGGGLVQPGGSLRLSCAVSGIDLSNYAINWVRQAPGKGLEWIGIIWASGTTFYATWAKGRFTISRDNSKNTVYLQMNSLRAEDTAVYYCARTVPGYSTAPYFDLWGQGTLVTVSSASTKGPSVFPLAPSSKSTSGGTAALGCLVKDYFPEPVTVSWNSGALTSGVHTFPAVLQSSGLYSLSSVVTVPSSSLGTQTYICNVNHKPSNTKVDKKVEPKSC
light: DIQMTQSPSSVSASVGDRVTITCQSSPSVWSNFLSWYQQKPGKAPKLLIYEASKLTSGVPSRFSGSGSGSGGGGSDVQLVESGGGSVQAGGSLRLSCAASGSTDSIEYMTWFRQAPGKAREGVAALYTHTGNTYYTDSVKGRFTISQDKAKNMAYLRMDSVKSEDTAIYTCGATRKYVPVRFALDQSSYDYWGQGTQVTVSSGGGGSGGGGSGGGGSTDFTLTISSLQPEDFATYYCGGGYSSISDTTFGGGTKVEIKRTVAAPSVFIFPPSDEQLKSGTASVVCLLNNFYPREAKVQWKVDNALQSGNSQESVTEQDSKDSTYSLSSTLTLSKADYEKHKVYACEVTHQGLSSPVTKSFNRGEC
notes: also called Antibody: CA645 Fab, Framework 3 Insert: VHH D3L11
Molecule B10 yielded a Kd in assay [6] of 0.48 nM.

B11: HyHEL5/VHH D3L11Fwk3 (anti-lysozyme HyHEL5 Fab with anti-lysozyme VHH D3L11 inserted into framework 3 of the light chain) (bispecific antibody)
heavy: EVQLQQSGAELMKPGASVKISCKASGYTFSDYWIEWVKQRPGHGLEWIGEILPGSGSTNYHERFKGKATFTADTSSSTAYMQLNSLTSEDSGVYYCLHGNYDFDGWGQGTTLTVSSASTKGPSVFPLAPSSKSTSGGTAALGCLVKDYFPEPVTVSWNSGALTSGVHTFPAVLQSSGLYSLSSVVTVPSSSLGTQTYICNVNHKPSNTKVDKKVEPKSC
light: DIVLTQSPAIMSASPGEKVTMTCSASSSVNYMYWYQQKSGTSPKRWIYDTSKLASGVPVRFSGSGSGSGGGGSDVQLVESGGGSVQAGGSLRLSCAASGSTDSIEYMTWFRQAPGKAREGVAALYTHTGNTYYTDSVKGRFTISQDKAKNMAYLRMDSVKSEDTAIYTCGATRKYVPVRFALDQSSYDYWGQGTQVTVSSGGGGSGGGGSGGGGSTSYSLTISSMETEDAATYYCQQWGRNPTFGGGTKLEIKRTVAAPSVFIFPPSDEQLKSGTASVVCLLNNFYPREAKVQWKVDNALQSGNSQESVTEQDSKDSTYSLSSTLTLSKADYEKHKVYACEVTHQGLSSPVTKSFNRGEC
notes: also called Antibody: HyHEL5 Fab, Framework 3 Insert: VHH D3L11
B11 gave an equilibrium dissociation constant (Kd) in assay [6] of 0.026 nM.

B12: HyHEL5/VHH15Fwk3 (anti-lysozyme HyHEL5 Fab with anti-IL-6 VHH15 inserted into framework 3 of the light chain) (bispecific antibody)
heavy: B11 heavy
light: DIVLTQSPAIMSASPGEKVTMTCSASSSVNYMYWYQQKSGTSPKRWIYDTSKLASGVPVRFSGSGSGSGGGGSQVQLVESGGGSVQAGGSLRLSCVAASGYTGCTYDMRWYRQAPGKEREFVSGIDSDGRATYADSVKGRFTISQSNAKIAVYLQMDSLKLEDTAMYYCNLQCLRYPGEYYWGQGTQVTVSSGGGGSGGGGSGGGGSTSYSLTISSMETEDAATYYCQQWGRNPTFGGGTKLEIKRTVAAPSVFIFPPSDEQLKSGTASVVCLLNNFYPREAKVQWKVDNALQSGNSQESVTEQDSKDSTYSLSSTLTLSKADYEKHKVYACEVTHQGLSSPVTKSFNRGEC
notes: also called Antibody: HyHEL5 Fab, Framework 3 Insert: VHH15
B12: the Kd in assay [6] is 0.31 nM.
